From article PMC12276012, “Molecular mechanisms of biomolecular condensate formation in Drosophila melanogaster siRNA biogenesis” come the findings set out here.

The data set concerns the target T1, Loqs-PD 1,2-mut (Drosophila melanogaster, UniProt Q9VJY9-4 1-359, K189A;K190A;K301A;K302A).
T1 sequence: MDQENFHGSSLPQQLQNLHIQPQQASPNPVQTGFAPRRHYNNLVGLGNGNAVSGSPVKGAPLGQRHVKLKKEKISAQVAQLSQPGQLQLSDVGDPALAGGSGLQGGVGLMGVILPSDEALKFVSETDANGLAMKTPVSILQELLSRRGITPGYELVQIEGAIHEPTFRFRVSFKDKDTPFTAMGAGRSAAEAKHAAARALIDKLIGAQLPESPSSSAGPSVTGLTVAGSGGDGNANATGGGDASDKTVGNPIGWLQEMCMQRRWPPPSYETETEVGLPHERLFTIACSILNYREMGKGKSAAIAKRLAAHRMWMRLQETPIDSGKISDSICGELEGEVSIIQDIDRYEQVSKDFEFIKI
Put plainly: EMSA; 400 nM RNA, 400-3200 nM protein; EMSA: 20 mM sodium phosphate pH 6.5, 150 mM NaCl, 15% glycerol, 15 min, 1% agarose 1x TBE; NMR: 20 mM sodium phosphate pH 6.5, PS-I or PS-II buffer (50-500 mM NaCl), 292 K for Loqs-PD deltaC. The following applies: protein: recombinant; tags: His6-GB1 or His6 tag, cleaved by TEV; label: 3' Cy5; hairpin, 21 bp stem, GUGA loop. For orientation: A gel shift assay detects complexes by their altered migration in electrophoresis.

B1: 21 bp hairpin dsRNA, Cy5 (structured_RNA)
RNA: GGAGCUUUCAAAAUGAUCUCCGUGAGGAGAUCAUUUUGAAAGCUCC
modifications: 3' pCp-Cy5 ligated (adds one C)
Consider B1, for which the binding result is given as “no binding”.
